Laboratory results as given in paper PMC3905857, “Structure and properties of the esterase from non-LTR retrotransposons suggest a role for lipids in retrotransposition” (Nucleic Acids Research, 2013).

How the values were obtained:
[1] = molecular target: the molecule itself; test: SEC-MALS; Superdex 75 (10/300 GL) followed online by MALLS; 20 mM Tris/HCl pH 7.5, 250 mM NaCl, 5 mM MgCl2
purified protein = substrate: CC(=O)Oc1ccc([N+](=O)[O-])cc1; test: purified protein; type: biochemical, Danio rerio; settings: 20 mM Tris/HCl pH 7.5, 250 mM NaCl, 5 mM MgCl2, 25°C

B1: ZfL2-1_CC, N-terminal construct comprising the coiled coil domain of the ZfL2-1 ORF1p (M15-T91) (domain or fragment, Danio rerio (zebrafish), UniProt Q3LG57 15-91, looked up)
chain: MEALELELEEVESQIRALVVRRSRLRERLLAVPNAKAVSSPKVRGNYNHIIPSTSTPRPSLSRPSAPGARLSQASFT
notes: ORF1 protein (ORF1p) of the ZfL2-1 non-LTR retrotransposon, Danio rerio, Uniprot Q3LG57, residues M15-T91; Expressed from pETM41P from a codon-optimized synthetic template
- stoichiometry N [1]: 2

B2: ZfL2-1 esterase (ZfL2-1_ES) (Danio rerio) (protein)
chain: DVAIIGDSIVRHVRAASSKGNKVRTFCFPGARVKNISTQIPTILGAAESPGAVVLHVGTNDTGLRQSEILKKDFRSLIETVRRTSPATQIIVSGPLPTYRRGNERFSRLLALNEWLITWCKEQKLLFANNWNLFWERPRLFRPDGLHPSRAGAELLSDNISRLLRTI
notes: esterase domain D136-I302, codon-optimized synthetic gene, pETM41P, E. coli BL21-Star; 19 kDa monomer (MBP apparently removed)
- Km (purified protein): 430 ± 100 µM
- kcat (purified protein): 0.32 ± 0.07 s⁻¹
